Measured values reported in paper PMC4479991.

Key:
[1] = target: zif268 (EGR1 DNA-binding domain), cleaved (UniProt P08046); experiment: solid-state nanopore; details: EMSA: binding on ice, at least 1 h, native PAGE 8% (oligos) or 3.5% (1 kb), salt up to 1 M KCl; nanopore: 1 M KCl, 30 min incubation at 200:1 protein:DNA; pH …
[2] = target: zif268_GST (uncleaved fusion) (UniProt P08046); experiment: EMSA; details: EMSA: binding on ice, at least 1 h, native PAGE 8% (oligos) or 3.5% (1 kb), salt up to 1 M KCl; nanopore: 1 M KCl, 30 min incubation at 200:1 protein:DNA; pH …

Substance	binding signal (% ABA (specifically bound) events) [1]	binding signal (% bound at 1:250 DNA:protein) [2]
(-)DNA 960 bp	4.3	–
CGTCAGGGCAAGCCTTATTCACTGAATGAGCAGCTTTGTTACGTTGATTTGGGTAATGAATATCCGGTTCTTGTCAAGATTACTCTTGATGAAGGTCAGCCAGCCTATGCGCCTGGTCTGTACACCGTTCATCTGTCCTCTTTCAAAGTTGGTCAGTTCGGTTCCCTTATGATTGACCGTCTGCGCCTCGTTCCGGCTAAGTAACATGGAGCAGGTCGCGGATTTCGACACAATTTATCAGGCGATGATACAAATCTCCGTTGTACTTTGTTTCGCGCTTGGTATAATCGCTGGGGGTCAAAGATGAGTGTTTTAGTGTATTCTTTCGCCTCTTTCGTTTTAGGTTGGTGCCTTCGTAGTGGCATTACGTATTTTACCCGTTTAATGGAAACTTCCTCATGAAAAAGTCTTTAGTCCTCAAAGCCTCTGTAGCCGTTGCTACCCTCGTTCCGATGCTGTCTTTCGCTGCTGAGGGTGACGATCCCGCAAAAGCGGCCTTTAACTCCCTGCAAGCCTCAGCGACCGAATATATCGGTTATGCGTGGGCGATGGTTGTTGTCATTGTCGGCGCAACTATCGGTATCAAGCTGTTTAAGAAATTCACCTCGAAAGCAAGCTGATAAACCGATACAATTAAAGGCTCCTTTTGGAGCCTTTTTTTTTGGAGATTTTCAACGTGAAAAAATTATTATTCGCAATTCCTTTAGTTGTTCCTTTCTATTCTCACTCCGCTGAAACTGTTGAAAGTTGTTTAGCAAAACCCCATACAGAAAATTCATTTACTAACGTCTGGAAAGACGACAAAACTTTAGATCGTTACGCTAACTATGAGGGTTGTCTGTGGAATGCTACAGGCGTTGTAGTTTGTACTGGTGACGAAACTCAGTGTTACGGTACATGGGTTCCTATTGGGCTTGCTATCCCTGAAAATGAGGGTGGTGGCTCTGAGGGTGGCGGTTCTGAGGGTGGCGGTTCTGAGGGTGGCGGTACTAAACCTCCTGAGTACGGT (double strand) [(+)DNA 1009 bp]	11.5	50
